To fix the notation:
B7: AAV2 VP3 VLP A593E (other)
chain: MATGSGAPMADNNEGADGVGNSSGNWHCDSTWMGDRVITTSTRTWALPTYNNHLYKQISSQSGASNDNHYFGYSTPWGYFDFNRFHCHFSPRDWQRLINNNWGFRPKRLNFKLFNIQVKEVTQNDGTTTIANNLTSTVQVFTDSEYQLPYVLGSAHQGCLPPFPADVFMVPQYGYLTLNNGSQAVGRSSFYCLEYFPSQMLRTGNNFTFSYTFEDVPFHSSYAHSQSLDRLMNPLIDQYLYYLSRTNTPSGTTTQSRLQFSQAGASDIRDQSRNWLPGPCYRQQRVSKTSADNNNSEYSWTGATKYHLNGRDSLVNPGPAMASHKDDEEKFFPQSGVLIFGKQGSEKTNVDIEKVMITDEEEIRTTNPVATEQYGSVSTNLQRGNRQAATEDVNTQGVLPGMVWQDRDVYLQGPIWAKIPHTDGHFHPSPLMGGFGLKHPPPQILIKNTPVPANPSTTFSAAKFASFITQYSTGQVSVEIEWELQKENSKRWNPEIQYTSNYNKSVNVDFTVDTNGVYSEPRPIGTRYLTRNL
notes: VP3-only VLP
B8: AAV2 VP3 VLP T592D (other)
chain: MATGSGAPMADNNEGADGVGNSSGNWHCDSTWMGDRVITTSTRTWALPTYNNHLYKQISSQSGASNDNHYFGYSTPWGYFDFNRFHCHFSPRDWQRLINNNWGFRPKRLNFKLFNIQVKEVTQNDGTTTIANNLTSTVQVFTDSEYQLPYVLGSAHQGCLPPFPADVFMVPQYGYLTLNNGSQAVGRSSFYCLEYFPSQMLRTGNNFTFSYTFEDVPFHSSYAHSQSLDRLMNPLIDQYLYYLSRTNTPSGTTTQSRLQFSQAGASDIRDQSRNWLPGPCYRQQRVSKTSADNNNSEYSWTGATKYHLNGRDSLVNPGPAMASHKDDEEKFFPQSGVLIFGKQGSEKTNVDIEKVMITDEEEIRTTNPVATEQYGSVSTNLQRGNRQAADADVNTQGVLPGMVWQDRDVYLQGPIWAKIPHTDGHFHPSPLMGGFGLKHPPPQILIKNTPVPANPSTTFSAAKFASFITQYSTGQVSVEIEWELQKENSKRWNPEIQYTSNYNKSVNVDFTVDTNGVYSEPRPIGTRYLTRNL
notes: VP3-only VLP
B9: AAV receptor (AAVR) fragment comprising the domains PKD1 and PKD2 (residues V305-V499) (receptor)
chain: VIKELVVSAGESVQITLPKNEVQLNAYVLQEPPKGETYTYDWQLITHPRDYSGEMEGKHSQILKLSKLTPGLYEFKVIVEGQNAHGEGYVNVTVKPEPRKNRPPIAIVSPQFQEISLPTTSTVIDGSQSTDDDKIVQYHWEELKGPLREEKISEDTAILKLSKLVPGNYTFSLTVVDSDGATNSTTANLTVNKAV

The target in assay [1] is B9. Kind of assay: SPR; against wild-type VLP. In general terms: In SPR one partner is held on a chip, and binding of the other changes the refractive index at the surface.
In assay [2] the target is B9. Kind of assay: SPR; captured AAV9 VP3 VLP, AAVR analyte.
Assay [3] addresses B9. The experiment in a line: SPR; affinity against wild-type AAV2 VLP.
Another assay addresses T1, AAV2 VP3 VLP T592D/A593E (adeno-associated virus serotype 2 (AAV2), UniProt P03135 203-735).
T1 construct: VP3-only VLP
The experiment in a line: SPR; captured AAV2 VP3 VLP, AAVR analyte.

The target of a further assay is T2, Wild-type AAV2 VP3 VLP (adeno-associated virus serotype 2 (AAV2), UniProt P03135 203-735).
T2 construct: VP3-only VLP; also called Wild-type AAV2 VLP (WT); WT
Kind of assay: SPR; captured AAV2 VP3 VLP, AAVR analyte.

The assay “AAV2 VP3 VLP A593E” addresses B7. The experiment in a line: SPR; captured AAV2 VP3 VLP, AAVR analyte.
The assay “AAV2 VP3 VLP T592D” concerns the target B8. The experiment in a line: SPR; captured AAV2 VP3 VLP, AAVR analyte.

B1: AAV9 VP3 VLP A273N, A472H, E500P (other)
VP3: MASGGGAPVADNNEGADGVGSSSGNWHCDSQWLGDRVITTSTRTWALPTYNNHLYKQISNSTSGGSSNDNNYFGYSTPWGYFDFNRFHCHFSPRDWQRLINNNWGFRPKRLNFKLFNIQVKEVTDNNGVKTIANNLTSTVQVFTDSDYQLPYVLGSAHEGCLPPFPADVFMIPQYGYLTLNDGSQAVGRSSFYCLEYFPSQMLRTGNNFQFSYEFENVPFHSSYAHSQSLDRLMNPLIDQYLYYLSKTINGSGQNQQTLKFSVAGPSNMHVQGRNYIPGPSYRQQRVSTTVTQNNNSPFAWPGASSWALNGRNSLMNPGPAMASHKEGEDRFFPLSGSLIFGKQGTGRDNVDADKVMITNEEEIKTTNPVATESYGQVATNHQSAQAQAQTGWVQNQGILPGMVWQDRDVYLQGPIWAKIPHTDGNFHPSPLMGGFGMKHPPPQILIKNTPVPADPPTAFNKDKLNSFITQYSTGQVSVEIEWELQKENSKRWNPEIQYTSNYYKSNNVEFAVNTEGVYSEPRPIGTRYLTRNL
notes: VP3-only VLP
In general, Kd refers to the free concentration of one partner at which half of the binding sites on the other are occupied at equilibrium, for simple one-to-one binding. As usually defined, the koff is the first-order rate constant of dissociation. The kon is the rate constant with which the complex forms. A higher kon goes with fast association. Consider B1, for which the “KD Fold Change” value in assay [1] is 455 fold. In assay [2], this molecule gave a Kd of 5.14 nM, a dissociation rate constant (koff) of 0.000236 s⁻¹ and a kon of 45900 M⁻¹ s⁻¹.

B2: AAV9 VP3 VLP I451Y, S454I, E500P, P504T (other)
chain: MASGGGAPVADNNEGADGVGSSSGNWHCDSQWLGDRVITTSTRTWALPTYNNHLYKQISNSTSGGSSNDNAYFGYSTPWGYFDFNRFHCHFSPRDWQRLINNNWGFRPKRLNFKLFNIQVKEVTDNNGVKTIANNLTSTVQVFTDSDYQLPYVLGSAHEGCLPPFPADVFMIPQYGYLTLNDGSQAVGRSSFYCLEYFPSQMLRTGNNFQFSYEFENVPFHSSYAHSQSLDRLMNPLIDQYLYYLSKTYNGIGQNQQTLKFSVAGPSNMAVQGRNYIPGPSYRQQRVSTTVTQNNNSPFAWTGASSWALNGRNSLMNPGPAMASHKEGEDRFFPLSGSLIFGKQGTGRDNVDADKVMITNEEEIKTTNPVATESYGQVATNHQSAQAQAQTGWVQNQGILPGMVWQDRDVYLQGPIWAKIPHTDGNFHPSPLMGGFGMKHPPPQILIKNTPVPADPPTAFNKDKLNSFITQYSTGQVSVEIEWELQKENSKRWNPEIQYTSNYYKSNNVEFAVNTEGVYSEPRPIGTRYLTRNL
modifications: One VP3 subunit is given; in the assay it stood assembled as a VP3-only icosahedral VLP capsid.
notes: VP3-only VLP
Regarding B2, the “KD Fold Change” value in assay [1] was 146 fold.

B3: AAV9 VP3 VLP Q387K, A472H, E500P (other)
VP3: MASGGGAPVADNNEGADGVGSSSGNWHCDSQWLGDRVITTSTRTWALPTYNNHLYKQISNSTSGGSSNDNAYFGYSTPWGYFDFNRFHCHFSPRDWQRLINNNWGFRPKRLNFKLFNIQVKEVTDNNGVKTIANNLTSTVQVFTDSDYQLPYVLGSAHEGCLPPFPADVFMIPQYGYLTLNDGSKAVGRSSFYCLEYFPSQMLRTGNNFQFSYEFENVPFHSSYAHSQSLDRLMNPLIDQYLYYLSKTINGSGQNQQTLKFSVAGPSNMHVQGRNYIPGPSYRQQRVSTTVTQNNNSPFAWPGASSWALNGRNSLMNPGPAMASHKEGEDRFFPLSGSLIFGKQGTGRDNVDADKVMITNEEEIKTTNPVATESYGQVATNHQSAQAQAQTGWVQNQGILPGMVWQDRDVYLQGPIWAKIPHTDGNFHPSPLMGGFGMKHPPPQILIKNTPVPADPPTAFNKDKLNSFITQYSTGQVSVEIEWELQKENSKRWNPEIQYTSNYYKSNNVEFAVNTEGVYSEPRPIGTRYLTRNL
notes: VP3-only VLP
On to B3, for which the “KD Fold Change” value in assay [1] was 3370 fold. In assay [2], binding was put at a Kd of 0.694 nM, the koff was found to be 0.000338 s⁻¹ and the kon came to 487000 M⁻¹ s⁻¹.

B4: AAV9 VP3 VLP I451Y, S454I, E500P, P504I (other)
chain: MASGGGAPVADNNEGADGVGSSSGNWHCDSQWLGDRVITTSTRTWALPTYNNHLYKQISNSTSGGSSNDNAYFGYSTPWGYFDFNRFHCHFSPRDWQRLINNNWGFRPKRLNFKLFNIQVKEVTDNNGVKTIANNLTSTVQVFTDSDYQLPYVLGSAHEGCLPPFPADVFMIPQYGYLTLNDGSQAVGRSSFYCLEYFPSQMLRTGNNFQFSYEFENVPFHSSYAHSQSLDRLMNPLIDQYLYYLSKTYNGIGQNQQTLKFSVAGPSNMAVQGRNYIPGPSYRQQRVSTTVTQNNNSPFAWIGASSWALNGRNSLMNPGPAMASHKEGEDRFFPLSGSLIFGKQGTGRDNVDADKVMITNEEEIKTTNPVATESYGQVATNHQSAQAQAQTGWVQNQGILPGMVWQDRDVYLQGPIWAKIPHTDGNFHPSPLMGGFGMKHPPPQILIKNTPVPADPPTAFNKDKLNSFITQYSTGQVSVEIEWELQKENSKRWNPEIQYTSNYYKSNNVEFAVNTEGVYSEPRPIGTRYLTRNL
modifications: One VP3 subunit is given; in the assay it stood assembled as a VP3-only icosahedral VLP capsid.
notes: VP3-only VLP
As to B4, in assay [1], the “KD Fold Change” value was 214 fold.

B5: AAV9 VP3 VLP A273N, Q387K, A472H, E500P (other)
VP3: MASGGGAPVADNNEGADGVGSSSGNWHCDSQWLGDRVITTSTRTWALPTYNNHLYKQISNSTSGGSSNDNNYFGYSTPWGYFDFNRFHCHFSPRDWQRLINNNWGFRPKRLNFKLFNIQVKEVTDNNGVKTIANNLTSTVQVFTDSDYQLPYVLGSAHEGCLPPFPADVFMIPQYGYLTLNDGSKAVGRSSFYCLEYFPSQMLRTGNNFQFSYEFENVPFHSSYAHSQSLDRLMNPLIDQYLYYLSKTINGSGQNQQTLKFSVAGPSNMHVQGRNYIPGPSYRQQRVSTTVTQNNNSPFAWPGASSWALNGRNSLMNPGPAMASHKEGEDRFFPLSGSLIFGKQGTGRDNVDADKVMITNEEEIKTTNPVATESYGQVATNHQSAQAQAQTGWVQNQGILPGMVWQDRDVYLQGPIWAKIPHTDGNFHPSPLMGGFGMKHPPPQILIKNTPVPADPPTAFNKDKLNSFITQYSTGQVSVEIEWELQKENSKRWNPEIQYTSNYYKSNNVEFAVNTEGVYSEPRPIGTRYLTRNL
notes: VP3-only VLP
For B5, the “KD Fold Change” value in assay [1] was 5560 fold. In assay [2], this molecule yielded a dissociation constant (Kd) of 0.421 nM, a koff of 3.96e-05 s⁻¹ and a kon of 94000 M⁻¹ s⁻¹.

B6: AAV9 VP3 VLP I451Y, S454I, E500P (other)
chain: MASGGGAPVADNNEGADGVGSSSGNWHCDSQWLGDRVITTSTRTWALPTYNNHLYKQISNSTSGGSSNDNAYFGYSTPWGYFDFNRFHCHFSPRDWQRLINNNWGFRPKRLNFKLFNIQVKEVTDNNGVKTIANNLTSTVQVFTDSDYQLPYVLGSAHEGCLPPFPADVFMIPQYGYLTLNDGSQAVGRSSFYCLEYFPSQMLRTGNNFQFSYEFENVPFHSSYAHSQSLDRLMNPLIDQYLYYLSKTYNGIGQNQQTLKFSVAGPSNMAVQGRNYIPGPSYRQQRVSTTVTQNNNSPFAWPGASSWALNGRNSLMNPGPAMASHKEGEDRFFPLSGSLIFGKQGTGRDNVDADKVMITNEEEIKTTNPVATESYGQVATNHQSAQAQAQTGWVQNQGILPGMVWQDRDVYLQGPIWAKIPHTDGNFHPSPLMGGFGMKHPPPQILIKNTPVPADPPTAFNKDKLNSFITQYSTGQVSVEIEWELQKENSKRWNPEIQYTSNYYKSNNVEFAVNTEGVYSEPRPIGTRYLTRNL
notes: VP3-only VLP
Turning to B6, in assay [1], the “KD Fold Change” value came to 217 fold.

In the case of B7, in assay [3], the “Fold change vs WT” value was about 4 fold.

On to B8, for which the “Fold change vs WT” value in assay [3] was 5 fold.

With B9, the Kd in the assay with AAV2 VP3 VLP T592D/A593E came to 330 nM; in the assay with Wild-type AAV2 VP3 VLP, 2100 nM; in the assay with AAV2 VP3 VLP A593E, 520 nM; in the assay with AAV2 VP3 VLP T592D it was 420 nM. Further, the off-rate constant (koff) with AAV2 VP3 VLP T592D/A593E was determined as 0.00652 s⁻¹; with Wild-type AAV2 VP3 VLP it was 0.0311 s⁻¹; with AAV2 VP3 VLP A593E it was 0.0111 s⁻¹; with AAV2 VP3 VLP T592D, 0.00797 s⁻¹. The kon with AAV2 VP3 VLP T592D/A593E was 19600 M⁻¹ s⁻¹; with Wild-type AAV2 VP3 VLP it was 15100 M⁻¹ s⁻¹; with AAV2 VP3 VLP A593E, 21600 M⁻¹ s⁻¹; in the assay with AAV2 VP3 VLP T592D, 19100 M⁻¹ s⁻¹.
